In publication doi:10.1101/2024.09.02.610768 (bioRxiv, 2024):

How the values were obtained:
FrzCDΔH2 (DB-H1-MA) [1] = target: T1, FrzCDΔH2 (DB-H1-MA) (Myxococcus xanthus, UniProt P43500 1-417, del84-137); assay: EMSA
T1 sequence: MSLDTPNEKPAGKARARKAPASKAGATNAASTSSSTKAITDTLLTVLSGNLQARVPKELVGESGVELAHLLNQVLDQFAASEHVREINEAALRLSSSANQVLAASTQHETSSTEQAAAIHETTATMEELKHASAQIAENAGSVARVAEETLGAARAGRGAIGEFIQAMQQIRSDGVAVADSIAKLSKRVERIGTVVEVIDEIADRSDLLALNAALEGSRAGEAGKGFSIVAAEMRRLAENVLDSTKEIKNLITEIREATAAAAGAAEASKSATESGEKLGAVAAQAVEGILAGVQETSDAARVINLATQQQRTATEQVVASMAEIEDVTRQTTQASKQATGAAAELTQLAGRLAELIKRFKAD

FrzCDΔH1 [2] = target: T2, FrzCDΔH1 (Myxococcus xanthus, UniProt P43500 1-417, del31-83); assay: EMSA
T2 sequence: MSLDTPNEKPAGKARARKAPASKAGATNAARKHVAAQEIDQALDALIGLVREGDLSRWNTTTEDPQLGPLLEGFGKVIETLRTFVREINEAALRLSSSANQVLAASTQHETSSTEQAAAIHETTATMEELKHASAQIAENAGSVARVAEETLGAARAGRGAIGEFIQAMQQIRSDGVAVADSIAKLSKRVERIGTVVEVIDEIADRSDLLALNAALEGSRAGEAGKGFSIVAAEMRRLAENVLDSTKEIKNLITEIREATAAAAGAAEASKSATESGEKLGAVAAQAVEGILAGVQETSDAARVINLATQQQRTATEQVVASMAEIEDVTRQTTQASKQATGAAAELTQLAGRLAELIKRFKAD

FrzCDΔMA (DB-H1-H2) [3] = target: T3, FrzCDΔMA (DB-H1-H2) (Myxococcus xanthus, UniProt P43500 1-137, del138-417); assay: SEC-MALS
T3 sequence: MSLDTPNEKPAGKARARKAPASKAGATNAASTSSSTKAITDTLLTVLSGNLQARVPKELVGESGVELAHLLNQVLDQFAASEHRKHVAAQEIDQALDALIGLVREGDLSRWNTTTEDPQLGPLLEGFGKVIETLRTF

FrzCDΔH1ΔH2 [4] = target: T4, FrzCDΔH1ΔH2 (Myxococcus xanthus, UniProt P43500 1-417, del31-137); assay: EMSA
T4 sequence: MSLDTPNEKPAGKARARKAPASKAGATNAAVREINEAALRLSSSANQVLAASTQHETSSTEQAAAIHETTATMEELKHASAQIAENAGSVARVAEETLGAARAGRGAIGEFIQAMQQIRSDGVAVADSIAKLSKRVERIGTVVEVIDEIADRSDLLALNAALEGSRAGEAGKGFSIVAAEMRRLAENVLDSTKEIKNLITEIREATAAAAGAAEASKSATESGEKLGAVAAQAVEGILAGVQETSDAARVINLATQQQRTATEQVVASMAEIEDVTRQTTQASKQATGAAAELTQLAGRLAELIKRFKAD

FrzCD [5] = target: T5, FrzCD (Myxococcus xanthus, UniProt P43500 1-417); assay: SEC-MALS
T5 sequence: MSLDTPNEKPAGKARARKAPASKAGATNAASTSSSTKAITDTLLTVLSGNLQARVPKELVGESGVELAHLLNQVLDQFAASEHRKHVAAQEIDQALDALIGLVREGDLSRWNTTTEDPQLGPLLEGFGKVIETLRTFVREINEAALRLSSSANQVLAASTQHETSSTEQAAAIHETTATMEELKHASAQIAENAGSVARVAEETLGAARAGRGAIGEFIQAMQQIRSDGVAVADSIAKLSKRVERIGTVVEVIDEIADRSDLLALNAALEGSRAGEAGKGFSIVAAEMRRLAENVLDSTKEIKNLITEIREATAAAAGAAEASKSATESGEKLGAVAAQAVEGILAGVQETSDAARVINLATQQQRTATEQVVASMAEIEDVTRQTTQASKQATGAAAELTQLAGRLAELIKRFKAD

FrzCDΔH1ΔH2 [6] = target: T4, FrzCDΔH1ΔH2; assay: BLI
FrzCDΔH2 (DB-H1-MA) [7] = target: T1, FrzCDΔH2 (DB-H1-MA); assay: BLI
FrzCDΔH1 [8] = target: T2, FrzCDΔH1; assay: BLI
FrzCD [9] = target: T5, FrzCD; assay: BLI
FrzCDΔMA (DB-H1-H2) [10] = target: T3, FrzCDΔMA (DB-H1-H2); assay: EMSA
FrzCD [11] = target: T5, FrzCD; assay: EMSA
SEC-MALS = target: the molecule itself; assay: SEC-MALS
FrzCDΔMA (DB-H1-H2) [12] = target: T3, FrzCDΔMA (DB-H1-H2); assay: EMSA; remark: listed apart in the source

B1: 35 bp DNA (dsDNA)
DNA 1: GTCACCTGCTCTAGCTAATAGACTGAGCCGAGGTG
DNA 2: CACCTCGGCTCAGTCTATTAGCTAGAGCAGGTGAC
**Q.** Does B1 bind (FrzCDΔH2 (DB-H1-MA) [1])?
**A.** binds

**Q.** Does B1 bind (FrzCDΔH1 [2])?
**A.** binds

**Q.** Does B1 bind (FrzCDΔMA (DB-H1-H2) [3])?
**A.** binds

**Q.** Does B1 bind (FrzCDΔH1ΔH2 [4])?
**A.** binds

**Q.** Does B1 bind (FrzCD [5])?
**A.** binds

B2: 178 bp DNA (dsDNA)
DNA 1: GGATCGCATCTGCCTACATCCCCAGCTCCCGGTCGGTCCGCTCGGAACCTAGCCCGGGTCAAAGACCCGGGGTCTATGTTGACCCATTTGGTGGGGATGGGTCTAATTGGACCTGGCGTTTTTTCGCGCCATGGAAATGTCAAGGCCCGTGATTCCAGACTGTTGGGCAGGGAGTT
DNA 2: AACTCCCTGCCCAACAGTCTGGAATCACGGGCCTTGACATTTCCATGGCGCGAAAAAACGCCAGGTCCAATTAGACCCATCCCCACCAAATGGGTCAACATAGACCCCGGGTCTTTGACCCGGGCTAGGTTCCGAGCGGACCGACCGGGAGCTGGGGATGTAGGCAGATGCGATCC
**Q.** Which Kd (FrzCDΔH1ΔH2 [6]) does the source give for B2 here?
**A.** 203 nM

**Q.** And the Kd (FrzCDΔH2 (DB-H1-MA) [7])?
**A.** 2640 nM

**Q.** What about the Kd (FrzCDΔH1 [8]) of the same binder?
**A.** 2270 nM

**Q.** And the Kd (FrzCD [9])?
**A.** 1070 nM

B3: 8 bp DNA (dsDNA)
DNA 1: ACTGCAGT
DNA 2: ACTGCAGT
**Q.** Does B3 bind (FrzCDΔMA (DB-H1-H2) [10])?
**A.** binds

**Q.** Does B3 bind (FrzCD [11])?
**A.** binds

B4: FrzCD^ΔH1 (receptor, Myxococcus xanthus, UniProt P43500 1-417, looked up)
chain: T2 sequence
**Q.** How did the “stoichiometry N” value (SEC-MALS) turn out when B4 was run?
**A.** 4

**Q.** Does AAAAAAAA (ssDNA) [8-base poly-A ssDNA] bind (FrzCD [11])?
**A.** binds

B5: FrzCD^ΔH2 (receptor, Myxococcus xanthus, UniProt P43500 1-417, looked up)
chain: T1 sequence
**Q.** For B5, which “stoichiometry N” value (SEC-MALS) is on record?
**A.** 4

B6: 12 bp DNA (dsDNA)
DNA 1: CTCACTATAGGG
DNA 2: CCCTATAGTGAG
**Q.** Does B6 bind (FrzCDΔMA (DB-H1-H2) [12])?
**A.** binds

B7: FrzCD^ΔMA (domain or fragment, Myxococcus xanthus, UniProt P43500 1-137, looked up)
chain: T3 sequence
**Q.** B7 was tested. Which “stoichiometry N” value (SEC-MALS) did it give?
**A.** 2

B8: FrzCD full-length (His6-tagged) (receptor, Myxococcus xanthus, UniProt P43500 1-417, looked up)
chain: T5 sequence
**Q.** For B8, which “stoichiometry N” value (SEC-MALS) is on record?
**A.** 2

B9: FrzCD^ΔH1ΔH2 (receptor, Myxococcus xanthus, UniProt P43500 1-417, looked up)
chain: T4 sequence
**Q.** How did the “stoichiometry N” value (SEC-MALS) turn out when B9 was run?
**A.** 4
